In this test the target is PP1c^1-293 (potato Protein Phosphatase 1-c isoform-3) (potato). Description: ITC.

B1: Pi04314 WY-only (domain or fragment)
chain: DLLGLFAKSKLKKMMKSESFKLKRFGEWDDFTVGYIREKLKNKYPDLLLNYLNVYKKAGNEIVR
Turning to B1, the Kd turned out to be 12.2 µM.

For the origin of these results see publication doi:10.1101/2023.07.24.550319.
